Assay results: patent publication US20250376533A1 (FUTUREGEN BIOPHARMACEUTICAL BEIJING, published 2025)
Positions count from the first letter of the chain named. Names and notes keep the numbering of the source.

T1: rat CD40 antigen (ACROBiosystems) (rat, UniProt A6JXD6 20-193)
T1 construct: Bought antigen coated on ELISA plates; construct not described
T1 sequence: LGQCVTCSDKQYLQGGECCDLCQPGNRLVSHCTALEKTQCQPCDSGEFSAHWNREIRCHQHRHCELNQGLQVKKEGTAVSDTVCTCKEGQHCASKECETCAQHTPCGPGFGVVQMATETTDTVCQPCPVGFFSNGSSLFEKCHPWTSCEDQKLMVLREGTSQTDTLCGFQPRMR

B1: anti-PD-L1/CD40 bispecific antibody 1653 (bispecific antibody, human IgG2, kappa)
light: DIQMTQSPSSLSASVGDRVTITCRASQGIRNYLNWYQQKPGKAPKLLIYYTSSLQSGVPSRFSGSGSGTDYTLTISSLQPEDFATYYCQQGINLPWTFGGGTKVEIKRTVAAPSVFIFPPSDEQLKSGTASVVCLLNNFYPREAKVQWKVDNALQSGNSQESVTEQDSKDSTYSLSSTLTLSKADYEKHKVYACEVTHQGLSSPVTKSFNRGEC
heavy: EVQLVESGGGLVQPGGSLRLSCAASGFTFSDYYMSWVRQAPGKGLEWVGFIRNKANAYTTEYAASVKGRFTISRDNSKSTLYLQMNSLRAEDTAVYYCARYGGLKKGWYFDLWGQGTLVTVSSASTKGPSVFPLAPCSRSTSESTAALGCLVKDYFPEPVTVSWNSGALTSGVHTFPAVLQSSGLYSLSSVVTVPSSNFGTQTYTCNVDHKPSNTKVDKTVERKCCVECPPCPAPPVAGPSVFLFPPKPKDTLMISRTPEVTCVVVDVSHEDPEVQFNWYVDGVEVHNAKTKPREEQFNSTFRVVSVLTVVHQDWLNGKEYKCKVSNKGLPAPIEKTISKTKGQPREPQVYTLPPSREEMTKNQVSLTCLVKGFYPSDIAVEWESNGQPENNYKTTPPMLDSDGSFFLYSKLTVDKSRWQQGNVFSCSVMHEALHNHYTQKSLSLSPGGGGGSGGGGSGGGGSGEVQLVESGGGLVQPGGSLRLSCAASGFTFDYYTQCWFRQAPGKEREWVSCISSSEGSTYYADSVKGRFTISRDNSKNTVYLQMNSLKTEDTAVYYCAARKGGPLTIENFFDYWGQGTQVTVSS
notes: First polypeptide chain = anti-CD40 light chain; second polypeptide chain = anti-CD40 heavy chain with the 1541 VHH joined to its C-terminus by a G4S linker
B2: anti-PD-L1/CD40 bispecific antibody 1607 (bispecific antibody, human IgG2, kappa)
light: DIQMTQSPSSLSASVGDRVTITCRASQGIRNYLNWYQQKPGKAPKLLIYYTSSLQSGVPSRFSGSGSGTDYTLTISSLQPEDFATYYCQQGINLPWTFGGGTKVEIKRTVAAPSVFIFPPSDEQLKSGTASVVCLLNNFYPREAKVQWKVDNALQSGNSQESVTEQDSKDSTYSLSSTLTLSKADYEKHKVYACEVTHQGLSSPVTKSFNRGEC
heavy: B1 heavy with A57G
notes: as for B1
B3: anti-PD-L1/CD40 bispecific antibody 1606 (bispecific antibody, human IgG2, kappa)
light: DIQMTQSPSSLSASVGDRVTITCRASQDIRNYLNWYQQKPGKAPKLLIYYTSRRDSGVPSRFSGSGSGTDYTLTISSLQPEDFATYFCQQGKTLPWTFGGGTKVEIKRTVAAPSVFIFPPSDEQLKSGTASVVCLLNNFYPREAKVQWKVDNALQSGNSQESVTEQDSKDSTYSLSSTLTLSKADYEKHKVYACEVTHQGLSSPVTKSFNRGEC
heavy: B1 heavy with A57G, S79N, K105R, K106Q, L112V
notes: as for B1
B4: anti-PD-L1/CD40 bispecific antibody 1654 (bispecific antibody, human IgG2, kappa)
light: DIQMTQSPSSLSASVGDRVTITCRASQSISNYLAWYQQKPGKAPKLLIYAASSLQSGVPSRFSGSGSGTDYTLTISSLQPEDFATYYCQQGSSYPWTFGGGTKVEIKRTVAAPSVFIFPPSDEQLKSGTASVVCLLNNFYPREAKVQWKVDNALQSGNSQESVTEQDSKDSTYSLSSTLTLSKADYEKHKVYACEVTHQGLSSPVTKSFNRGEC
heavy: B1 heavy with D31N, S87R, K106V
notes: as for B1
B5: anti-PD-L1/CD40 bispecific antibody 1609 (bispecific antibody, human IgG2, kappa)
light: B3 light with D28T, R30S, N31S, R53T, R54L, D55Q, F87Y, K92N, T93A, L94Y
heavy: B1 heavy with D31N, A57G, K106I
notes: as for B1
B6: anti-PD-L1/CD40 bispecific antibody 1652 (bispecific antibody, human IgG2, kappa)
light: B3 light
heavy: B1 heavy with S79N, K105R, K106Q, L112V
notes: as for B1
B7: anti-PD-L1/CD40 bispecific antibody 1605 (bispecific antibody, human IgG2, kappa)
light: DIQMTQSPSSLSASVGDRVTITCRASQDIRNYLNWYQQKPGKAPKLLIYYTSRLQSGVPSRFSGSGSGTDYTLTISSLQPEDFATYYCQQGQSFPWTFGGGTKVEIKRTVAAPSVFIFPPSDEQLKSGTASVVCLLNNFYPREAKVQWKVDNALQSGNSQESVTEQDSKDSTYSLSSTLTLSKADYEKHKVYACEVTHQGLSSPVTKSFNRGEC
heavy: B1 heavy with D31N, G49A, L104I, K105R, K106V
notes: as for B1
B8: anti-PD-L1/CD40 bispecific antibody 1608 (bispecific antibody, human IgG2, kappa)
light: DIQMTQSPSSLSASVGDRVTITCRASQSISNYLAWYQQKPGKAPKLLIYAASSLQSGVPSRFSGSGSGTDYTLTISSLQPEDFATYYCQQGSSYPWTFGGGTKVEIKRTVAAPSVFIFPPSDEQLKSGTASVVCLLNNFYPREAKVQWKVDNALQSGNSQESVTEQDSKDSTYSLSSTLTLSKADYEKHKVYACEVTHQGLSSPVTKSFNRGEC
heavy: B1 heavy with D31N, A57G, S87R, K106V
notes: as for B1

target: T2, CD40 on HEK-Blue CD40L cells (InvivoGen) (UniProt P25942 21-277, limits assumed); test: flow cytometry, competition with 10 nM Biotin-CD40L on HEK-Blue CD40L cells
T2 construct: whole, on cells; also called HEK-Blue CD40L cells that highly express CD40
Protocol: The blocking effect of bispecific antibodies on CD40/CD40L binding was tested using HEK-Blue CD40L cells that highly express CD40. The specific method is as follows: HEK-Blue CD40L cells were collected and resuspended in pre-cooled PBS containing 2% FBS at a density of 1E7 cells/mL, and then added to a 96-well plate at 50 μL per well, i.e., 5E5 cells/well. Biotin-CD40L (FutureGen Biopharmaceutical) and serially diluted bispecific antibody were then added at 50 μL per well, with a final concentration of Biotin-CD40L of 10 nM, and the plate was incubated at 4° C. for 1 hour. The wells were washed twice with pre-cooled PBS. Streptavidin-PE (BioLegend, Cat. No. 405203) diluted in pre-cooled PBS containing 2% FBS was added, and the plate was incubated at 4° C. for 30 minutes. The wells were washed twice with pre-cooled PBS. The cells were then resuspended in pre-cooled PBS containing 2% FBS and assayed by flow cytometry.

T2 sequence (P25942 21-277 limits assumed): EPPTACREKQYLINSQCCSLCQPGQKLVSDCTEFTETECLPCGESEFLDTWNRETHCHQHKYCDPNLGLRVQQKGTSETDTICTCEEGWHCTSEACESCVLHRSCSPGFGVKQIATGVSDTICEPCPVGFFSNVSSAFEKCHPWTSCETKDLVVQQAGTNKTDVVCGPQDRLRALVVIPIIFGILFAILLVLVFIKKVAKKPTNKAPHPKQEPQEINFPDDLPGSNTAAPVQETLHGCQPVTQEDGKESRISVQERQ

Row | IC50 | Binder
1 | 0.807 nM | B1
2 | 0.703 nM | B2
3 | 0.78 nM | B3
4 | 7.7 nM | B4
5 | 3.16 nM | B5
6 | 0.852 nM | B6
7 | 1.09 nM | B7
8 | 4.54 nM | B8

target: T3, human CD40 antigen (ACROBiosystems) (human, UniProt P25942 21-193); test: bridging ELISA: coated human CD40, serially diluted bispecific antibody, detection with biotin-labeled human PD-L1 and streptavidin-HRP, OD450
T3 construct: Bought antigen coated on ELISA plates; construct not described
Protocol: Antigen human CD40 (purchased from ACROBiosystems) was coated with 1 μg/mL carbonate buffer (pH=9.6) in an ELISA plate at 100 μL per well, followed by incubation at 4° C. overnight. The wells were washed 5 times with PBST. 300 μL/well of PBST containing 1% BSA was added to block the wells, and the plate was incubated at room temperature for 1 hour. The wells were washed 5 times with PBST. […] The wells were washed 5 times with PBST. Biotin-labeled human PD-L1 (FutureGen Biopharmaceutical) diluted with PBST containing 1% BSA was added at 100 μL per well, and the plate was incubated at room temperature for 1 hour. The wells were washed 5 times with PBST. Streptavidin-HRP (BioLegend, Cat. No. 405210) diluted with PBST containing 1% BSA was added at 100 μL per well, and the plate was incubated at room temperature for 30 minutes. Colorimetric substrate TMB was added at 100 μL per well and allowed to develop color at room temperature for 10 minutes, followed by the addition of 1 M sulfuric acid to terminate the reaction. The OD_[…] was read on a microplate reader to analyze the results, and the EC₅₀ was calculated using a 4-parameter fit binding curve.

T3 sequence (P25942 21-193 limits assumed): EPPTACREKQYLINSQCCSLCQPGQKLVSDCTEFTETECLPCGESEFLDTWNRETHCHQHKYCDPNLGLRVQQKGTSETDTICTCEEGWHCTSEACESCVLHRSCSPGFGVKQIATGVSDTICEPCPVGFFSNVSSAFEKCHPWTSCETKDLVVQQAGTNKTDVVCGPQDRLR

Row | EC50 | Binder
9 | 0.039 nM | B1
10 | 0.032 nM | B2
11 | 0.04 nM | B3
12 | 0.026 nM | B4
13 | 0.039 nM | B5
14 | 0.032 nM | B6
15 | 0.038 nM | B7
16 | 0.029 nM | B8

target: T2, CD40 on HEK-Blue CD40L cells (InvivoGen); test: cell-based or functional assay

Row | CD40 agonistic activity (A)/(B) Ratio, EC50 without over with CHO/PD-L1 | CD40 agonistic activity EC50 (nM) with CHO/PD-L1 (B), SEAP reporter | CD40 agonistic activity EC50 (nM) without CHO/PD-L1 (A), SEAP reporter | Binder
17 | 2.2 | 0.018 nM | 0.039 nM | B1
18 | 2.4 | 0.012 nM | 0.029 nM | B2
19 | 3.7 | 0.017 nM | 0.061 nM | B3
20 | 23.2 | 0.027 nM | 0.633 nM | B4
21 | 28 | 0.02 nM | 0.556 nM | B5
22 | 4.1 | 0.022 nM | 0.092 nM | B6
23 | 3.2 | 0.024 nM | 0.075 nM | B7
24 | 20.2 | 0.02 nM | 0.396 nM | B8

target: T4, mouse PD-L1 antigen (ACROBiosystems) (mouse, UniProt Q9EP73 19-239); test: ELISA, coated antigen
T4 construct: Bought antigen coated on ELISA plates; construct not described
Protocol: (§1) The binding ability of bispecific antibody to human PD-L1 and human CD40, as well as the species specificity, was detected using an enzyme-linked immunosorbent assay (ELISA). The specific method is as follows: human PD-L1, cynomolgus PD-L1, rat PD-L1, mouse PD-L1, human CD40, cynomolgus CD40, rat CD40, and mouse CD40 antigens (all purchased from ACROBiosystems) were coated with 1 μg/mL carbonate buffer (pH=9.6) in an ELISA plate at 100 μL per well, followed by incubation at 4° C. overnight. The wells were washed 5 times with PBST. 300 μL/well of PBST containing 1% BSA was added to block the wells, and the plate was incubated at room temperature for 1 hour. The wells were washed 5 times with PBST. […] The wells were washed 5 times with PBST. […] The wells were washed 5 times with PBST. Colorimetric substrate TMB was added at 100 μL per well and allowed to develop color at room temperature for 10 minutes, followed by the addition of 1 M sulfuric acid to terminate the reaction. The OD_{450 nm} was read on a microplate reader to analyze the results, and the EC₅₀ was calculated using a 4-parameter fit binding curve.
(§2) These bispecific antibodies are not able to bind to rat PD-L1 and CD40 or mouse PD-L1 and CD40.

T4 sequence (Q9EP73 19-239 limits assumed): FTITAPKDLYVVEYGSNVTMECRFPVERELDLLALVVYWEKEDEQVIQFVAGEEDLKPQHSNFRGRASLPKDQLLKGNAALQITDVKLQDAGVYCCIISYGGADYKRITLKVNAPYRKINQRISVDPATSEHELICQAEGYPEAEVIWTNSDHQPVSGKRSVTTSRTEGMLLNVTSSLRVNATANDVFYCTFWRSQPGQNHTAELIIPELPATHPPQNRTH

Row | binding result | Binder
25 | no binding | B1
26 | no binding | B2
27 | no binding | B3
28 | no binding | B4
29 | no binding | B5
30 | no binding | B6
31 | no binding | B7
32 | no binding | B8

target: T5, cynomolgus CD40 antigen (ACROBiosystems) (cynomolgus, UniProt G7PG38 21-193); test: ELISA, coated antigen
T5 construct: Bought antigen coated on ELISA plates; construct not described
Protocol: as §1, §2

Row | EC50 | Binder
33 | 0.018 nM | B1
34 | 0.016 nM | B2
35 | 0.02 nM | B3
36 | 0.013 nM | B4
37 | 0.019 nM | B5
38 | 0.017 nM | B6
39 | 0.02 nM | B7
40 | 0.02 nM | B8

target: T3, human CD40 antigen (ACROBiosystems); test: ELISA, coated antigen
Protocol: as §1, §2

Row | EC50 | Binder
41 | 0.02 nM | B1
42 | 0.02 nM | B2
43 | 0.024 nM | B3
44 | 0.013 nM | B4
45 | 0.021 nM | B5
46 | 0.021 nM | B6
47 | 0.024 nM | B7
48 | 0.022 nM | B8

target: T6, rat PD-L1 antigen (ACROBiosystems) (rat, UniProt D4AE25 19-239); test: ELISA, coated antigen
T6 construct: Bought antigen coated on ELISA plates; construct not described
Protocol: as §1, §2

T6 sequence (D4AE25 entry or part of it limits assumed): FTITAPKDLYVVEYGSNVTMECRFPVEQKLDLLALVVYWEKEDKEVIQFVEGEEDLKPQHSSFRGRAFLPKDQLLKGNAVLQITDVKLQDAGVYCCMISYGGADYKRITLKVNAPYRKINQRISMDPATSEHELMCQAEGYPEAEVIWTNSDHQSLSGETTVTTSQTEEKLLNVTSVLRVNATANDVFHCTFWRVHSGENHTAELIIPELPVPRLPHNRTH

Row | binding result | Binder
49 | no binding | B1
50 | no binding | B2
51 | no binding | B3
52 | no binding | B4
53 | no binding | B5
54 | no binding | B6
55 | no binding | B7
56 | no binding | B8

target: T1, rat CD40 antigen (ACROBiosystems); test: ELISA, coated antigen
Protocol: as §1, §2

Row | binding result | Binder
57 | no binding | B1
58 | no binding | B2
59 | no binding | B3
60 | no binding | B4
61 | no binding | B5
62 | no binding | B6
63 | no binding | B7
64 | no binding | B8

target: T7, cynomolgus PD-L1 antigen (ACROBiosystems) (cynomolgus, UniProt G7PSE7 19-238); test: ELISA, coated antigen
T7 construct: Bought antigen coated on ELISA plates; construct not described
Protocol: as §1, §2

T7 sequence (G7PSE7 entry or part of it): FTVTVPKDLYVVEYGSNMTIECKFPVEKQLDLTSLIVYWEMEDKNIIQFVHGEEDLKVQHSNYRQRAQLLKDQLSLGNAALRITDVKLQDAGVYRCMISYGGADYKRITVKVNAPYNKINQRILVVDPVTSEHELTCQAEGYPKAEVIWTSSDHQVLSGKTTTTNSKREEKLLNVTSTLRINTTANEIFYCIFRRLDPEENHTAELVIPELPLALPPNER

Row | EC50 | Binder
65 | 0.021 nM | B1
66 | 0.019 nM | B2
67 | 0.022 nM | B3
68 | 0.045 nM | B4
69 | 0.016 nM | B5
70 | 0.018 nM | B6
71 | 0.025 nM | B7
72 | 0.019 nM | B8

target: T8, human PD-L1 antigen (ACROBiosystems) (human, UniProt Q9NZQ7 19-238); test: ELISA, coated antigen
T8 construct: Bought antigen coated on ELISA plates
Protocol: as §1, §2

T8 sequence (Q9NZQ7 19-238 limits assumed): as the sequence (G7PSE7 entry or part of it) above, with T33A, S34A, N62S, Q68R, R82Q, L173F, A185T, I192T, L215H counted along it

Row | EC50 | Binder
73 | 0.039 nM | B1
74 | 0.036 nM | B2
75 | 0.039 nM | B3
76 | 0.031 nM | B4
77 | 0.034 nM | B5
78 | 0.035 nM | B6
79 | 0.05 nM | B7
80 | 0.038 nM | B8

target: T9, mouse CD40 antigen (ACROBiosystems) (mouse, UniProt P27512 24-193, limits assumed); test: ELISA, coated antigen
T9 construct: Bought antigen coated on ELISA plates; construct not described
Protocol: as §1, §2

T9 sequence (P27512 24-193 limits assumed): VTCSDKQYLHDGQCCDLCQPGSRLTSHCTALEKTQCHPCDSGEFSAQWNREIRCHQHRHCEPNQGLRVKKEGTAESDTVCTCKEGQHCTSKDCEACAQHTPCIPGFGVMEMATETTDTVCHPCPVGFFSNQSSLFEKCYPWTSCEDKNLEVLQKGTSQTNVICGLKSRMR

Row | binding result | Binder
81 | no binding | B1
82 | no binding | B2
83 | no binding | B3
84 | no binding | B4
85 | no binding | B5
86 | no binding | B6
87 | no binding | B7
88 | no binding | B8
